Paper PMC4338028, “Studies of a Murine Monoclonal Antibody Directed against DARC: Reappraisal of Its Specificity” (PLoS ONE, 2015)
Square brackets hold non-standard residues; d marks the D form. Ends that are not written are not given here. sY = N[C@@H](Cc1ccc(OS(=O)(=O)O)cc1)C(=O)O

What was measured:
[1] = target: T1, Duffy Antigen Receptor for Chemokines (DARC), full-length consensus, expressed in K562 cells (human) (UniProt Q16570); experiment: SPR; DARC purified from K562 cells immobilised at ca. 400 RU, reference cell only activated and deactivated; 2C3 Fab as analyte; measured before and after deglycosylation on the chip with N-glycosidase; Biacore X100
T1 sequence (chain, N-linked oligosaccharide chains (as made in K562 cells)): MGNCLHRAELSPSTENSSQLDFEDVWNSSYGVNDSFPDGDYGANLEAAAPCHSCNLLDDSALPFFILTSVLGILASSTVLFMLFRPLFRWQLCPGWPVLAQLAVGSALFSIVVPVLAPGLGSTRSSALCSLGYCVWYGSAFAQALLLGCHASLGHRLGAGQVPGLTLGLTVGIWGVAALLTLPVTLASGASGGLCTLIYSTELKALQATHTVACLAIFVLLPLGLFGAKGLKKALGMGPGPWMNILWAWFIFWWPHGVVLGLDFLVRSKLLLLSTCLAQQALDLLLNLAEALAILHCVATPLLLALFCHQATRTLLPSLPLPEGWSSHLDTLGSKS

[2] = target: T2, DARC from K562 cells after deglycosylation (Homo sapiens, UniProt Q16570, oligosaccharides removed by PNG-ase F on the chip); experiment: as above; details: both partners purified
T2 construct: Duffy Antigen Receptor for Chemokines (DARC, Atypical Chemokine Receptor 1), full length; m15 after treatment on the chip; also called deglycosylated DARC; source: K562 cells expressing DARC, purified on an immobilised anti-DARC nanobody; deglycosylated with N-glycosidase (PNG-ase F) on the sensor chip

[3] = target: ECD1-nuc after phosphorylation by Src kinase (phosphate on Tyr-30) (human); experiment: SPR; ECD1-nuc (Tyr-54 of nuclease removed) immobilised as ligand, nuclease in the reference cell; 2C3 Fab as analyte; measured before and after phosphorylation on the chip by Src kinase; Biacore X100
[4] = target: ECD1-nuc with the phosphorylation site on Tyr-54 of nuclease removed, not phosphorylated (human); experiment: as above
[5] = target: T3, first extracellular domain of DARC followed by nuclease from Staphylococcus aureus (ECD1-nuc), wild type (Homo sapiens, UniProt Q16570); experiment: ELISA; direct: plate coated with wild-type ECD1-nuc (0.1 μg per well), 2C3 Fab diluted in TBS, 1 h at room temperature; detected with anti-Fab antiserum conjugated with alkaline phosphatase; triplicates; details: both partners purified
T3 construct: Duffy Antigen Receptor for Chemokines (DARC, ACKR1), first extracellular domain (ECD1); also called WT ECD1-nuc; consensus ECD1; source: E. coli BL21, purified (Capto-S ion exchange, reversed-phase chromatography); not shown: nuclease from Staphylococcus aureus, C-terminal, kept

[6] = target: T3, first extracellular domain of DARC …; experiment: SPR; 2C3 MAb or 2C3 Fab immobilised by amine coupling (about 400 RU), anti-Kx2 antibody in the reference cell; ECD1-nuc as analyte at 5 concentrations; association 100 sec, dissociation 600 sec; Biacore X100, CM5, HBS-EP; 1:1 Langmuir model; details: both partners purified
[7] = target: T4, synthetic peptide DFEDVWNSSYG (residues 21-31 of ECD1 of DARC) (Homo sapiens); experiment: SPR; competition: 2C3 MAb (culture supernatant diluted 40 times) incubated 1 h at room temperature with the synthetic peptides, then injected over 2000 RU of immobilised WT ECD1-nuc (nuclease in the reference cell); RU read at 90 sec; Biacore X100, CM5, HBS-EP; the pair peptide and MAb; details: one partner purified
T4 construct: DARC (ACKR1), residues 21-31 of ECD1; also called non-sulfated peptide; source: synthetic peptide; bought: Cambridge Research Biochemicals
T4 chain: DFEDVWNSSYG

[8] = target: T5, Duffy Antigen Receptor for Chemokines (DARC), full-length consensus, expressed in K562 cells (Homo sapiens, UniProt Q16570, N-linked oligosaccharide chains (as made in K562 cells)); experiment: flow cytometry on cells; about 10^6 transfected K562 cells incubated 1 hour with 2C3 MAb culture supernatant in PBS-0.2% BSA, PE-conjugated secondary antibody; read-out is the ratio of % cells positive with 2C3 MAb to % positive with the anti-Fy^a antibody; cells with mean fluorescence above 10^2 counted as positive; details: partners not purified
T5 construct: also called ACKR1; DARC from K562 cells; source: K562 cells, transfected, selected with geneticin: on cells (flow cytometry); purified from the lysate on an immobilised anti-DARC nanobody, eluted with peptide DFEDVW (SPR)

[9] = target: T6, full-length DARC with Ser-29 and Tyr-30 replaced by Ala, on K562 cells (Homo sapiens (Human)., UniProt Q16570, S29A (printed as the sequence FEDVWNSAA) | Y30A (printed as the sequence …, site N27 is not glycosylated)); experiment: as above; details: partners not purified
T6 construct: DARC (ACKR1), full length, mutant; source: K562 cells, transfected, on cells

[10] = target: T7, full-length DARC with Tyr-30 replaced by Ala, on K562 cells (Homo sapiens, UniProt Q16570, Y30A (printed as the sequence FEDVWNSSA)); experiment: as above; details: partners not purified
T7 construct: DARC (ACKR1), full length, mutant; source: K562 cells, transfected, on cells

[11] = target: T8, full-length DARC without the glycosylation site at Asn-27 (Ser-29 replaced by Ala), on K562 cells (Homo sapiens, UniProt Q16570, S29A (printed as the sequence FEDVWNSAY), site N27 is not glycosylated); experiment: as above; details: partners not purified
T8 construct: DARC (ACKR1), full length, mutant; source: K562 cells, transfected, on cells

[12] = target: T9, full-length DARC with Tyr-30 replaced by Glu, on K562 cells (Homo sapiens, UniProt Q16570, Y30E (printed as the sequence FEDVWNSSE)); experiment: as above; details: partners not purified
T9 construct: DARC (ACKR1), full length, mutant; source: K562 cells, transfected, on cells

[13] = target: T10, full-length DARC with Trp-26 replaced by Phe, on K562 cells (Homo sapiens (Human)., UniProt Q16570, W26F (printed as the sequence FEDVFNSSY)); experiment: as above; details: partners not purified
T10 construct: DARC (ACKR1), full length, mutant; source: K562 cells, transfected, on cells

[14] = target: murine anti-Fy6 monoclonal antibody 2C3 (clone name NaM185-2C3) (mouse); experiment: SPR; competition: 2C3 MAb (culture supernatant diluted 40 times) incubated 1 h at room temperature with the synthetic peptides, then injected over 2000 RU of immobilised WT ECD1-nuc (nuclease in the reference cell); RU read at 90 sec; Biacore X100, CM5, HBS-EP; the pair peptide and MAb

B1: 2C3 Fab fragment (Fab, V domains shown)
VH: EVKLVESGGDLVQPGGSLKLSCAASGMTFSSYGMSWVRQTPDKRLELVASINRNGGSTYYPDSVKGRFTISRDNAKNTLYLQMSSLKSEDTAMYFCVRAGDYLSMDYWGQGTSVTVSS
VL: ELVMTQTPLSLPVSLGDQASISCRTSQSLLHSNGNTYLHWYLQKPGQSPKLLIYKVPNRFSGVPDRFSGSGSGTDFTLRITRVEAEDLGVYFCSQSTHVYTFGGGTKLEIK
notes: variable region of the heavy chain, as the VH of m1; CH1 part of the Fab; variable region of the light chain, as the VL of m1; light chain constant domain of the Fab; Cloned by PCR from total RNA of the hybridoma into pComb3H; also called 2C3-derived Fab; source: E. coli (pComb3H vector), purified
[1]
  Kd: 0.263 nM
  koff: 0.000547 s⁻¹
  kon: 2.08e+06 M⁻¹ s⁻¹
[2]
  Kd: 0.0283 nM
  koff: 0.000276 s⁻¹
  kon: 9.75e+06 M⁻¹ s⁻¹
[3]
  Kd: 0.459 nM
  koff: 0.000777 s⁻¹
  kon: 1.69e+06 M⁻¹ s⁻¹
[4]
  Kd: 14.2 nM
  koff: 0.000766 s⁻¹
  kon: 53900 M⁻¹ s⁻¹
[5]
  fold lower affinity than 2C3 MAb (ELISA): ~2 fold
[6]
  Kd: 93 nM

B2: murine anti-Fy6 monoclonal antibody 2C3 (clone name NaM185-2C3) (antibody, V domains shown)
VH: EVKLVESGGDLVQPGGSLKLSCAASGMTFSSYGMSWVRQTPDKRLELVASINRNGGSTYYPDSVKGRFTISRDNAKNTLYLQMSSLKSEDTAMYFCVRAGDYLSMDYWGQGTSVTVSS
VL: ELVMTQTPLSLPVSLGDQASISCRTSQSLLHSNGNTYLHWYLQKPGQSPKLLIYKVPNRFSGVPDRFSGSGSGTDFTLRITRVEAEDLGVYFCSQSTHVYTFGGGTKLEIK
notes: variable region of the heavy chain; murine heavy chain constant region; variable region of the light chain; murine light chain constant region; Whole murine antibody; The variable regions were cloned from the hybridoma for the Fab; also called 2C3 MAb; MAb 2C3; source: 2C3-producing hybridoma
[7]
  IC50: 410 ± 40 nM
[8]
  ratio of % cells positive with 2C3 MAb to % cells positive with anti-Fy^a MAb: 0.97 ± 0.07
[9]
  ratio of % cells positive with 2C3 MAb to % cells positive with anti-Fy^a MAb: 0.95 ± 0.03
[10]
  ratio of % cells positive with 2C3 MAb to % cells positive with anti-Fy^a MAb: 0.75 ± 0.03
[11]
  ratio of % cells positive with 2C3 MAb to % cells positive with anti-Fy^a MAb: 0.97 ± 0.04
[12]
  ratio of % cells positive with 2C3 MAb to % cells positive with anti-Fy^a MAb: 1.16 ± 0.09
[13]
  ratio of % cells positive with 2C3 MAb to % cells positive with anti-Fy^a MAb: 0.19 ± 0.02
[6]
  Kd: 1.1 nM

B3: synthetic sulfated peptide …(SO3H)G (residues 21-31 of ECD1 of DARC) (peptide)
peptide: DFEDVWNSS[sY]G
[14]
  IC50: 252 nM
